Key:
alpha-amylase [1] = biological target: T1, alpha-amylase (Homo sapiens, UniProt P0DUB6 P0DUB6:16-511); experiment: SPR; 400 nM amylase, 1 mM MgCl2, pH 7.4; details: tags: none stated; commercial human alpha-amylase, Lee Biosolutions; label: 3' poly(dA)20 captured on biotin-poly(dT)20
T1 sequence: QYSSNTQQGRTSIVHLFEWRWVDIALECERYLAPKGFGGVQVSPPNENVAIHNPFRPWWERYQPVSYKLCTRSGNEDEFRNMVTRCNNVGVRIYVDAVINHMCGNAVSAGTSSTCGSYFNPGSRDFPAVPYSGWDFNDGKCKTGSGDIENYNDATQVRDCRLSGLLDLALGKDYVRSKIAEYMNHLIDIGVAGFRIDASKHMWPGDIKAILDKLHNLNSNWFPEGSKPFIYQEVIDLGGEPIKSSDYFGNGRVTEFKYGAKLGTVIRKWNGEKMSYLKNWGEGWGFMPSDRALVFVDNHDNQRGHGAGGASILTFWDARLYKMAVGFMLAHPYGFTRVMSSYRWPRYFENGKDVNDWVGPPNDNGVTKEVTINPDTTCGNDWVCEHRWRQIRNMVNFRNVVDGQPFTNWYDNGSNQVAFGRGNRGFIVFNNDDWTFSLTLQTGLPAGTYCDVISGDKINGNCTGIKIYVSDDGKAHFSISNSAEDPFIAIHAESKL
Protocol: The analysis of the binding ability was carried out using a ProteON XPR36 (BioRad) in accordance with its instructions for use.
First, as a sensor chip designed specifically for the ProteON, a streptavidin-immobilized chip (trade name: ProteOn NLC Sensor Chip, BioRad) was set in the ProteON XPR36. Biotinylated poly(dT) at 5 μmol/L was injected to a flow cell of the sensor chip using ultrapure water (DDW), and the binding was allowed to proceed until the signal intensity (RU: Resonance Unit) reached about 900 RU. The biotinylated poly(dT) was prepared by biotinylating the 5′ end of 20-mer deoxythymidine. Then, the poly(dA)-added aptamer at 200 nmol/L was injected to the flow cell of the chip using an SPR buffer at a flow rate of 25 μL/min for 80 seconds, and the binding was allowed to proceed until the signal intensity reached about 800 RU. […] Subsequently, the specimen was injected using the SPR buffer at a flow rate of 50 μL/min for 120 seconds, followed by washing performed by flowing the SPR buffer under the same conditions for 300 seconds. The concentration of the human α-amylase in the specimen was set to 400 nmol/L. Signal intensity measurement was performed concurrently with the injection of the specimen and the washing with the SPR buffer. With 0 seconds being the start of the injection, the mean value of signal intensities from 115 seconds to 125 seconds was determined. […] Then, the value (B/A) obtained by dividing the protein binding measured value (B) by the aptamer immobilization measured value (A) was determined as a relative value (Relative Unit).

alpha-amylase [2] = biological target: T1, alpha-amylase; experiment: SPR; SPR buffer with 1 mM MgCl2, pH 7.4; Chi2 24.85; details: tags: none stated; commercial human alpha-amylase, Lee Biosolutions; label: 3' poly(dA)20 captured on biotin-poly(dT)20
Protocol: (§1) Biotinylated poly(dT) at 5 μmol/L was injected to a flow cell of the sensor chip using ultrapure water (DDW), and the binding was allowed to proceed until the signal intensity (RU: Resonance Unit) reached about 900 RU. The biotinylated poly(dT) was prepared by biotinylating the 5′ end of 20-mer deoxythymidine. Then, the poly(dA)-added aptamer at 200 nmol/L was injected to the flow cell of the chip using an SPR buffer at a flow rate of 25 μL/min for 80 seconds, and the binding was allowed to proceed until the signal intensity reached about 800 RU. […] With 0 seconds being the start of the injection, the mean value of signal intensities from 115 seconds to 125 seconds was determined. […] Then, the value (B/A) obtained by dividing the protein binding measured value (B) by the aptamer immobilization measured value (A) was determined as a relative value (Relative Unit).
(§2) The binding ability of the aptamers was analyzed by SPR in the same manner as in Example 1, except that the concentration of the α-amylase in the specimen was set to a plurality of values. The concentration was set to 20 nmol/L, 10 nmol/L, 5 nmol/L, 2.5 nmol/L, and 1.25 nmol/L. Then, from the results obtained by the SPR analysis, the kinetic parameter and the chi-squared value were calculated.

chromogranin A (CgA) = biological target: T2, chromogranin A (CgA) (Homo sapiens, UniProt P10645 P10645:19-457); experiment: capillary electrophoresis specificity control; details: tags: N-terminal His-tag; full length, Creative BioMart CHGA-26904TH; label: 5' TYE665
T2 sequence: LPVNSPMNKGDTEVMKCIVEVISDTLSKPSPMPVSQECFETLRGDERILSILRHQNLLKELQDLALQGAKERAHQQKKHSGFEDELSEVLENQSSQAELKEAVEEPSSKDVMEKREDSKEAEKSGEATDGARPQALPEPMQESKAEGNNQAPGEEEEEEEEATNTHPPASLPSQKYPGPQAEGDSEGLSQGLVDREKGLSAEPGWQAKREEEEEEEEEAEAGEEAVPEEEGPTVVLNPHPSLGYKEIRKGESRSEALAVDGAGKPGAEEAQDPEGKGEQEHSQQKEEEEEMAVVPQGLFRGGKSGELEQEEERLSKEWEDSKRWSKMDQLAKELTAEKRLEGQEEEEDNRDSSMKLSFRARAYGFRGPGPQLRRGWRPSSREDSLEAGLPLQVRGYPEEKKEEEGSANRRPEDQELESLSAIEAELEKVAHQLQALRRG
Protocol: (§3) Reaction solutions containing the labeled aptamer (SEQ ID NO: 1) were prepared. Each of the reaction solutions was subjected to CAE under the following conditions. The reaction solution was caused to migrate while separating the components therefrom, and the fluorescence at a maximum absorption wavelength (665 nm) of the fluorescent substance was measured. As the reaction solutions, the following four types of reaction solutions were used: a reaction solution 1 containing the labeled aptamer only; a reaction solution 2 containing the labeled aptamer and the α-amylase; a reaction solution 3 containing the labeled aptamer and the saliva; and a reaction solution 4 containing the labeled aptamer as the negative control and the saliva. In each of the reaction solutions, the concentration of the labeled aptamer was 200 nmol/L. In the reaction solution 2, the concentration of the α-amylase was 2 μmol/L. In the reaction solutions 3 and 4, the concentration of the saliva was 10%. The reminder of each of the reaction solutions was a buffer solution. The composition of the buffer solution was as follows: 40 mmol/L HEPES (pH 7.5), 125 mmol/L NaCl, 5 mmol/L KCl, and 1 mmol/L MgCl₂.
(§4) Preparation of the reaction solution 2 and the binding ability analysis by CAE were carried out in the same manner as in the above item (3), except that the labeled aptamers (SEQ ID NOs: 1, 2, 3, and 19) were used. Further, in order to examine the specificity of the labeled aptamers to the α-amylase, the binding ability analysis by CAE was performed in the same manner as in the case where the above-described reaction solution 2 was used, except that, instead of the α-amylase, human chromogranin A (CgA, recombinant full length protein, Creative BioMart, #CHGA-26904TH) or human IgA (secretory, Biomedicals, LLC-Cappel Products, #55905), each having a His-tag fused at the N terminus were used.

alpha-amylase [3] = biological target: T1, alpha-amylase; experiment: capillary electrophoresis; 200 nM aptamer, 2 uM amylase, 1 mM MgCl2; details: tags: none stated; commercial human alpha-amylase, Lee Biosolutions; label: 5' TYE665
Protocol: as §3, §4

alpha-amylase [4] = biological target: T1, alpha-amylase; experiment: SPR; SPR buffer with 1 mM MgCl2, pH 7.4; Chi2 29.33; details: tags: none stated; commercial human alpha-amylase, Lee Biosolutions; label: 3' poly(dA)20 captured on biotin-poly(dT)20
Protocol: as §1, §2

alpha-amylase [5] = biological target: T1, alpha-amylase; experiment: SPR; SPR buffer with 1 mM MgCl2, pH 7.4; Chi2 18.8; details: tags: none stated; commercial human alpha-amylase, Lee Biosolutions; label: 3' poly(dA)20 captured on biotin-poly(dT)20
Protocol: as §1, §2

B1: AML1243KR8m5 (ssDNA)
DNA: GGATACCTTAACGCCGCCTATTGAGTTCAACAATGACTAGTGTTTGTCGGTCTGAGTTGCACCCGTCTCGAAATCAAAAAAAAAAAAAAAAAAAA
modifications: KS9 modified T (formula 1) at underlined T, i.e. T 3' of the 5' primer region
binding result (alpha-amylase [1]): binds

B2: AML1243KR8m2s49Fw_s20 (ssDNA)
DNA: TACCTTAACGCCGCCTATTGCTATGAGTAGTGTTTGTAGGTCTGGCAAAAAAAAAAAAAAAAAAAA
modifications: KS9 modified T (formula 1) at underlined T, i.e. T 3' of the 5' primer region
Kd (alpha-amylase [2]): 4.23 nM

B3: TYE665-Amy_258KK10R8m2 (ssDNA)
DNA: GGTTACGCCCAGGACACATTTCATTGATGGCATACTAAGGGTCGAGGAATTCGTAAGCTCGGTCTCCTCGGATAATC
modifications: KK10 modified T (formula 2) at double-underlined T, i.e. T 3' of the 5' primer region
binding result (chromogranin A (CgA)): no binding | binding result (alpha-amylase [3]): binds

B4: AML1243KR8m3s63Fw_s20 (ssDNA)
DNA: TACCTTAACGCCGCCTATTGCGAGGTGTGGCTAGTCGTTATAGGTCCACCGAGTTGCACCAAAAAAAAAAAAAAAAAAAA
modifications: KS9 modified T (formula 1) at underlined T, i.e. T 3' of the 5' primer region
Kd (alpha-amylase [4]): 16.6 nM

B5: AML1243KR8m2s49 (ssDNA)
DNA: GGATACCTTAACGCCGCCTATTGCTATGAGTAGTGTTTGTAGGTCTGGCAAAAAAAAAAAAAAAAAAAA
modifications: KS9 modified T (formula 1) at underlined T, i.e. T 3' of the 5' primer region
Kd (alpha-amylase [5]): 3.19 nM

B6: Amy_258KK10R8m3 (ssDNA)
DNA: GGTTACGCCCAGGACACATTTCAGAGCGTAAACAGTCCTGGTTGGCAAATGTGTAAGCTCGGTCTCCTCGGATAATCAAAAAAAAAAAAAAAAAAAA
modifications: KK10 modified T (formula 2) at double-underlined T, i.e. T 3' of the 5' primer region
binding result (alpha-amylase [1]): binds

B7: TYE665-AML1243KR8m3 (ssDNA)
DNA: GGATACCTTAACGCCGCCTATTGCGAGGTGTGGCTAGTCGTTATAGGTCCACCGAGTTGCACCCGTCTCGAAATC
modifications: KS9 modified T (formula 1) at underlined T, i.e. T 3' of the 5' primer region
binding result (chromogranin A (CgA)): no binding | binding result (alpha-amylase [3]): binds

B8: AML2243KR8m3 (ssDNA)
DNA: GGATACCTTAACGCCGCCTATTGGTGTCACTAGTGTTTGTCGGTGCCAGCAAGGAGTTGCACCCGTCTCGAAATCAAAAAAAAAAAAAAAAAAAA
modifications: KS9 modified T (formula 1) at underlined T, i.e. T 3' of the 5' primer region
binding result (alpha-amylase [1]): binds

From patent publication US20180327746, “Alpha-AMYLASE-BINDING NUCLEIC ACID MOLECULE AND USE THEREOF” (NEC Solution Innovators, Ltd., published 2018)
